PMC6177315 (Biochemistry, 2018)
Where two headings read alike, the source gives them in different places. Where no end group is shown, it is not given here.

B1: human eIF5B_(951–1220), comprising domains 3 and 4 (GH-eIF5B-D34) (domain or fragment, UniProt O60841 951-1220, looked up)
chain: YKEDEIPVLKDELIHELKQTLNAIKLEEKGVYVQASTLGSLEALLEFLKTSEVPYAGINIGPVHKKDVMKASVMLEHDPQYAVILAFDVRIERDAQEMADSLGVRIFSAEIIYHLFDAFTKYRQDYKKQKQEEFKHIAVFPCKIKILPQYIFNSRDPIVMGVTVEAGQVKQGTPMCVPSKNFVDIGIVTSIEINHKQVDVAKKGQEVCVKIEPIPGESPKMFGRHFEATDILVSKISRQSIDALKDWFRDEMQKSDWQLIVELKKVFEII
B2: human eIF5B_(1076–1220), comprising domain 4 (GH-eIF5B-D4) (domain or fragment, UniProt O60841 1076-1220, looked up)
chain: YKKQKQEEFKHIAVFPCKIKILPQYIFNSRDPIVMGVTVEAGQVKQGTPMCVPSKNFVDIGIVTSIEINHKQVDVAKKGQEVCVKIEPIPGESPKMFGRHFEATDILVSKISRQSIDALKDWFRDEMQKSDWQLIVELKKVFEII
B3: eIF5_(196–431) (GH-eIF5-CTD) (domain or fragment, human, UniProt P55010 196-431, looked up)
chain: EEEEDDDWGEDTTEEAQRRRMDEISDHAKVLTLSDDLERTIEERVNILFDFVKKKKEEGVIDSSDKEIVAEAERLDVKAMGPLVLTEVLFNEKIREQIKKYRRHFLRFCHNNKKAQRYLLHGLECVVAMHQAQLISKIPHILKEMYDADLLEEEVIISWSEKASKKYVSKELAKEIRVKAEPFIKWLKEAEEESSGGEEEDEDENIEVVYSKAASVPKVETVKSDNKDDDIDIDAI

Experiments:
Assay in all cases: fluorescence polarisation
[1] = molecular target: Full-length human eIF5 (GH-eIF5) (human, UniProt P55010 1-431)
[2] = molecular target: B1
[3] = molecular target: B2
[4] = molecular target: B1; remark: listed apart in the source
[5] = molecular target: B2; remark: listed apart in the source
[6] = molecular target: B3

| Kd [1] | Kd [2] | Kd [3] | Binder | other results |
| --- | --- | --- | --- | --- |
| 510 nM | – | – | B1 | – |
| – | 1200 nM | 740 nM | DDDIDIDAI (peptide, UniProt P55010 423-431, looked up) [eIF5 fragment comprising the C-terminal 9 residues (eIF5-CT9)] | – |
| – | 1100 nM | 500 nM | EEEDEDENIEVVYSKAASVPKVETVKSDNKDDDIDIDAI (peptide, UniProt P55010 393-431, looked up) [eIF5 fragment comprising the C-terminal 39 residues (eIF5-CT39)] | – |
| – | – | – | DIDIDAI (peptide, UniProt P55010 425-431, looked up, also: fluorescein label, position not given here) [fluorescein-labeled 7-residue eIF5 C-terminal peptide (Fl-eIF5-CT7)] | Kd [4]: 2400 nM; Kd [5]: 1400 nM |
| 370 nM | – | – | B2 | Kd [6]: 370 nM |
| – | 720 nM | – | B3 | – |
